Test results from PMC8034618.

Tests used:
Test in all cases: EMSA
[1] = test system: LARP1 665-947 cluster 6 full phosphomimetic (10 sites) (Homo sapiens); details: tRNA and BSA competitors; stated 4.99-fold reduction; m7Gppp cap; EMSA: 20 mM Tris-HCl pH 8, 150 mM NaCl, 10% glycerol, 1 mM DTT, 0.5 ug tRNA, 1 ug BSA in …; on ice 30 min; 7-8% native 0.5x TBE gel at 4 C; RNA <=200 pM
[2] = test system: LARP1 665-947 cluster 6 partial phosphomimetic (5 sites) (Homo sapiens); details: tRNA and BSA competitors; m7Gppp cap; EMSA: 20 mM Tris-HCl pH 8, 150 mM NaCl, 10% glycerol, 1 mM DTT, 0.5 ug tRNA, 1 ug BSA in 10 ul; on ice 30 min; 7-8% native 0.5x TBE gel at 4 C; RNA <=200 pM
[3] = test system: LARP1 796-1019 cluster 7 phosphomimetic (Homo sapiens); details: tRNA and BSA competitors; enhanced relative to WT 796-1019; m7Gppp cap; EMSA: 20 mM Tris-HCl pH 8, 150 mM NaCl, 10% glycerol, 1 mM DTT, 0.5 ug tRNA, 1 ug BSA in 10 ul; on ice 30 min; 7-8% native 0.5x TBE gel at 4 C; RNA <=200 pM

Question: m7G-RPS6-UTR (capped RPS6 20-mer) was tested. Which Kd [1] did it give?
Answer: 2840 nM

Question: What about the Kd [2] of the same substance?
Answer: 902 nM

Question: What about the Kd [3] of the same substance?
Answer: 44 nM
